According to PMC12416549 (2024):
Where a chain is given by its changes, count along the chain named. Names and notes keep the numbering of the source.

T1: TNFR1 (Homo sapiens, UniProt P19438)
T1 chain: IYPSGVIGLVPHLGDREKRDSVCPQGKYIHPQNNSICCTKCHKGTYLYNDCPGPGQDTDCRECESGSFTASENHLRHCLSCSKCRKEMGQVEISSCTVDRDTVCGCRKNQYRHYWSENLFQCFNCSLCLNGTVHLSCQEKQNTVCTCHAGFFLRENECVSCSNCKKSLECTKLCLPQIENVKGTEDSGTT

B1: D40W (designed binder)
chain: MTLQELLREEALRRAEAEAFRYALELLAEKFPEQKEYLLWLAEEIESQIRSLSGVDVEDVRKFLDKEWAWVKELLAEHPAELAEVEAARAARLAELRAEVEAKVAA
B2: E73K (designed binder)
chain: B1 chain with W40D, E73K
B3: E18D (designed binder)
chain: B1 chain with E18D, W40D
B4: F31I (designed binder)
chain: B1 chain with F31I, W40D
B5: L26H (designed binder)
chain: B1 chain with L26H, W40D
B6: L96F (designed binder)
chain: B1 chain with W40D, L96F
B7: A87F (designed binder)
chain: B1 chain with W40D, A87F
B8: A19D (designed binder)
chain: B1 chain with A19D, W40D
B9: A98W (designed binder)
chain: B1 chain with W40D, A98W
B10: K103T (designed binder)
chain: B1 chain with W40D, K103T
B11: A102L (designed binder)
chain: B1 chain with W40D, A102L
B12: K66H (designed binder)
chain: B1 chain with W40D, K66H
B13: P79R (designed binder)
chain: B1 chain with W40D, P79R
B14: E29N (designed binder)
chain: B1 chain with E29N, W40D
B15: R8V (designed binder)
chain: B1 chain with R8V, W40D
B16: E10L (designed binder)
chain: B1 chain with E10L, W40D
B17: E43D (designed binder)
chain: B1 chain with W40D, E43D
B18: E77R (designed binder)
chain: B1 chain with W40D, E77R
B19: E46V (designed binder)
chain: B1 chain with W40D, E46V
B20: L7Q (designed binder)
chain: B1 chain with L7Q, W40D
B21: R13M (designed binder)
chain: B1 chain with R13M, W40D
B22: R8A (designed binder)
chain: B1 chain with R8A, W40D
B23: L96C (designed binder)
chain: B1 chain with W40D, L96C
B24: S53M (designed binder)
chain: B1 chain with W40D, S53M
B25: E36I (designed binder)
chain: B1 chain with E36I, W40D
B26: V71H (designed binder)
chain: B1 chain with W40D, V71H
B27: E77A (designed binder)
chain: B1 chain with W40D, E77A
B28: V71D (designed binder)
chain: B1 chain with W40D, V71D
B29: Q4G (designed binder)
chain: B1 chain with Q4G, W40D
B30: W68E (designed binder)
chain: B1 chain with W40D, W68E
B31: D59Y (designed binder)
chain: B1 chain with W40D, D59Y
B32: D56A (designed binder)
chain: B1 chain with W40D, D56A
B33: V55K (designed binder)
chain: B1 chain with W40D, V55K
B34: P32T (designed binder)
chain: B1 chain with P32T, W40D
B35: V71A (designed binder)
chain: B1 chain with W40D, V71A
B36: V85L (designed binder)
chain: B1 chain with W40D, V85L
B37: T2K (designed binder)
chain: B1 chain with T2K, W40D
B38: A19I (designed binder)
chain: B1 chain with A19I, W40D
B39: E33G (designed binder)
chain: B1 chain with E33G, W40D
B40: E84W (designed binder)
chain: B1 chain with W40D, E84W
B41: A87E (designed binder)
chain: B1 chain with W40D, A87E
B42: A69S (designed binder)
chain: B1 chain with W40D, A69S
B43: E99I (designed binder)
chain: B1 chain with W40D, E99I

Molecular target: T1, TNFR1
Experiment: yeast display SC50

| Binder | apparent Kd (screen) [nM] |
| --- | --- |
| B1 | 0.49 |
| B2 | 0.539 |
| B3 | 0.718 |
| B4 | 0.956 |
| B5 | 0.593 |
| B6 | 0.539 |
| B7 | 0.79 |
| B8 | 1.16 |
| B9 | 0.49 |
| B10 | 0.956 |
| B11 | 0.79 |
| B12 | 1.05 |
| B13 | 0.869 |
| B14 | 0.956 |
| B15 | 0.539 |
| B16 | 0.539 |
| B17 | 0.79 |
| B18 | 0.49 |
| B19 | 0.49 |
| B20 | 8.56 |
| B21 | 0.304 |
| B22 | 0.869 |

| Binder | apparent Kd (screen) [nM] |
| --- | --- |
| B23 | 0.49 |
| B24 | 1.27 |
| B25 | 2.48 |
| B26 | 0.539 |
| B27 | 0.539 |
| B28 | 29.5 |
| B29 | 0.49 |
| B30 | 2.73 |
| B31 | 3 |
| B32 | 2.05 |
| B33 | 16.7 |
| B34 | 0.539 |
| B35 | 0.49 |
| B36 | 2.73 |
| B37 | 0.718 |
| B38 | 0.956 |
| B39 | 0.79 |
| B40 | 0.593 |
| B41 | 0.446 |
| B42 | 0.718 |
| B43 | 0.49 |
